The values below come from patent publication US20250026827A1 (Alector, published 2025).

In assay [1] the target is T1, human SIRPβ1 domain 1 (D1) Fc fusion (human, UniProt O00241 30-148).
T1 construct: Made in HEK293/T cells with a heterologous signal peptide; also called Human SIRPβ1 D1-Fc; Human SIRPβ1-Fc; not shown: C-terminal human IgG1 Fc
The experiment in a line: Octet, Fab monovalent. In general terms: BLI is a label-free optical method that tracks binding on a fibre tip over time.

Assay [2] addresses T2, human SIRPα on cells (human, UniProt P78324 31-504).
T2 construct: Whole entry
The experiment in a line: flow cytometry. A general note: A flow cytometer gives signals particle by particle.

Assay [3] has as its target T3, mouse SIRPβ1 on CHO cells (mouse).
T3 construct: Whole entry
T3 chain: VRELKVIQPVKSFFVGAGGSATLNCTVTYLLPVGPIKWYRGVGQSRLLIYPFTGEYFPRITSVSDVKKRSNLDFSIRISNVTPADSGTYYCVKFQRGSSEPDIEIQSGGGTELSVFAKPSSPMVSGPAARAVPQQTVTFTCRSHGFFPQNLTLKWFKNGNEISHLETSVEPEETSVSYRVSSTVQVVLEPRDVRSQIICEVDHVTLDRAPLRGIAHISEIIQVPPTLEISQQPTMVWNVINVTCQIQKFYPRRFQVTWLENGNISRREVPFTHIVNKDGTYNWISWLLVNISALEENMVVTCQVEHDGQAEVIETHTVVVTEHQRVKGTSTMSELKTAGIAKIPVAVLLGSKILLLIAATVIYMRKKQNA
The assay can be described thus: flow cytometry.

Assay [4] addresses T4, mouse SIRPα on cells (mouse, UniProt P97797 32-513).
T4 construct: whole, on cells
T4 sequence (looked up): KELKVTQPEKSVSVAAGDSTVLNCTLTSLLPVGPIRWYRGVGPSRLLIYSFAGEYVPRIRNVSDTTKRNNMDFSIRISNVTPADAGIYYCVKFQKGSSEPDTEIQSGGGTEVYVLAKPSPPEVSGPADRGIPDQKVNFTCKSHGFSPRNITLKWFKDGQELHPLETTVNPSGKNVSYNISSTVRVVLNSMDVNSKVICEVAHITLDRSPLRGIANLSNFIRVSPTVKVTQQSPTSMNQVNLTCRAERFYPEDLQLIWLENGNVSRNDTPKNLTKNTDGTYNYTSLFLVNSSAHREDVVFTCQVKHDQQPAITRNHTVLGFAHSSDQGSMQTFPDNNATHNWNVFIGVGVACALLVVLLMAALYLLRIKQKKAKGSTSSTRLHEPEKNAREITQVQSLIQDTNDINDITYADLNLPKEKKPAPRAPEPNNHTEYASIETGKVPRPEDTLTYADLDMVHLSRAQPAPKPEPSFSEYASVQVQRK
The experiment in a line: flow cytometry.

A further assay has as its target T5, mouse SIRPα D1-Fc (mouse, UniProt P97797 32-150, limits assumed).
T5 construct: domain: D1
T5 sequence (looked up): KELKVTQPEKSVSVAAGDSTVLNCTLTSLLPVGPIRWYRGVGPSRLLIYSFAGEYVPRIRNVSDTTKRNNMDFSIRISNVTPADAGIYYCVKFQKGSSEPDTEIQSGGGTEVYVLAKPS
The assay can be described thus: Octet.

Assay [5] addresses T6, human SIRPα domain 1 (D1) Fc fusion (human, UniProt P78324 32-149).
T6 construct: also called human SIRPα D1-Fc; Human SIRPα Fc; not shown: C-terminal human IgG1 Fc
The experiment in a line: Octet.

Assay [6] deals with T2, human SIRPα on cells. The experiment in a line: flow cytometry. This is another data set of the same source.
In assay [7] the target is T3, mouse SIRPβ1 on CHO cells. The experiment in a line: flow cytometry.
The target of assay [8] is T4, mouse SIRPα on cells. The experiment in a line: flow cytometry. The source holds these as a separate data set.
Assay [9] addresses T7, human SIRPβ1 isoform 1 on cells (human, UniProt O00241 30-398).
T7 construct: On CHO cells (low level), on BWZ/BW5147.G.1.4 cells (reporter cells co-express human DAP12) or on primary human myeloid cells; also called huSIRPβ1; BWZ-huSIRPβ1
The experiment in a line: flow cytometry.

Assay [10] concerns the target T1, human SIRPβ1 domain 1 (D1) Fc fusion. The experiment in a line: Octet, IgG avid.

Changes are numbered by the printed parent chain.
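For FOB in this document: antibodies tested at 1 µg/ml for 30 min on ice against receptor-expressing cells, detected with a PE-labelled secondary antibody, read as mean fluorescence intensity relative to background.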

T7 sequence (O00241 30-398): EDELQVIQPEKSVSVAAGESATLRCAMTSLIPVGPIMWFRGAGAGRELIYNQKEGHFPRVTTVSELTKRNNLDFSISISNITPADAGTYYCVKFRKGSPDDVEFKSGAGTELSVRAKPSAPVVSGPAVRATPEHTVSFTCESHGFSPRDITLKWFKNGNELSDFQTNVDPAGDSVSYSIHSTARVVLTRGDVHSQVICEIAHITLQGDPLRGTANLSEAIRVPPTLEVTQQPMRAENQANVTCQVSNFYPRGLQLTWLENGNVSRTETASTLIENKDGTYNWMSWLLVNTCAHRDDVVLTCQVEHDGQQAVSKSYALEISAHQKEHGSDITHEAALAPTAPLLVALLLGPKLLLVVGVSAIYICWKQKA
T1 sequence (O00241 30-148 limits assumed): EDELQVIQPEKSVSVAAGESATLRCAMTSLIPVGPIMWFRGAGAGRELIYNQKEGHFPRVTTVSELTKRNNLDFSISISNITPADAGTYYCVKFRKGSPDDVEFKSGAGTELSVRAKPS
Protocol for mouse SIRPα D1-Fc: Briefly, Octet affinity measurements were performed by loading IgGs on-line onto AHQ sensors. Sensors were equilibrated off-line in assay buffer for 30 min and then monitored on-line for 60 seconds for baseline establishment. For avid binding measurement, sensors with loaded IgGs were exposed to 100 nM antigen (human SIRPα domain 1 (D1) Fc fusion or SIRPβ1 domain 1 (D1) Fc fusion) for 3 min, and then transferred to assay buffer for 3 min for off-rate measurement. Additional avid binding was determined by loading biotinylated SIRPβ1 monomer on SA sensors and exposing to 100 nM IgG in solution. Monovalent binding measurements were obtained by loading human SIRPα- or SIRPβ1-Fc fusion antigens onto AHQ sensor, followed by exposure to 100 nM anti-SIRPβ1 antibody Fab. Additional monovalent measurements were made by loading biotinylated human SIRPα or SIRPβ1 monomer to SA sensor followed by exposure to 100 nM Fab in solution. Kinetics data were fit using a 1:1 binding model in the data analysis software provided by ForteBio (ForteBio Data Analysis Software 7.0).

B1: SB-40-18 Fab (Fab, V domains shown)
VH: QVQLVQSGAEVKKPGASVKVSCKASGYTFTSYYMAWVRQAPGQRLEWMGWINPAVGATIYSQKFQGRVTITRDTSASTAYMELSSLRSEDTAVYYCARDTGEYSYSPHGMDVWGQGTTVTVSS
VL: EIVLTQSPATLSLSPGERATLSCRASQSVSSYLAWYQQKPGQAPRLLIYDSSNRATGIPARFSGSGSGTDFTLTISSLEPEDFAVYYCQQRDEHPPWTFGGGTKVEIK
notes: Fab by papain digestion
Regarding B1, the dissociation constant Kd (as a rule, the constant that tells how readily two partners part at equilibrium) in assay [1] was determined as 18.1 nM. This counts as double-digit nanomolar.

B2: SB-40-21 Fab (Fab, V domains shown)
VH: QVQLVQSGAEVKKPGASVKVSCKASGYTFTSYYMVWVRQAPGQGLEWMGIINPSSGDTNYAQKFQGRVTMTRDTSISTAYMELSRLRSDDTAVYYCARDTGEYSYSPHGMDVWGQGTTVTVSS
VL: B1 VL
notes: Fab by papain digestion
As for B2, binding in assay [1] was characterised by a dissociation constant (Kd) of 40.4 nM. Against the preceding molecule, the Kd is about 2.2-fold higher.

B3: SB-40-20 Fab (Fab, V domains shown)
VH: B2 VH with Y32F, M34I, V35S, D57H, F64L, R72T, I76T, R85S, D89E
VL: B1 VL
notes: Fab by papain digestion
In assay [1], B3 gave a Kd of 9.41 nM.

B4: SB-40-19 Fab (Fab, V domains shown)
VH: B2 VH with D57A, R72T, I76T, S84R, R85S
VL: B1 VL
notes: Fab by papain digestion
In [1], B4 had a Kd of 44.8 nM.

B5: SB-44 (antibody, V domains shown)
VH: EVQLVESGGGLVQPGGSLRLSCAASGFTVSSNYMSWVRQAPGKGLEWVSVIYSGGDTYYADSVKGRFTISRDNSKNTLYLQMNSLRAEDTAVYYCAREGSSFWSGSAVSYYGMDVWGQGTTVTVSS
VL: DIQMTQSPSTLSASVGDRVTITCRASQSIGSWLAWYQQKPGKAPKLLIYKASSLESGVPSRFSGSGSGTEFTLTISSLQPDDFATYYCQEYGSYRTFGGGTKVEIK
notes: IgG
In the case of B5, the binding result in the assay with human SIRPα on cells [2] is on record as “no binding (tested: 1 ug/ml)”; in [3] it was “no binding (tested: 1 ug/ml)”; in the assay with mouse SIRPα on cells [4], “no binding (tested: 1 ug/ml)”; with mouse SIRPα D1-Fc it was “no binding (tested: 100 nM)”; in assay [5], “no binding (tested: 100 nM)”. In addition, the FOB came to 2.9 fold over background with human SIRPα on cells [6], 1.5 fold over background in assay [7], 1.2 fold over background in the assay with mouse SIRPα on cells [8] and 2.8 fold over background in [9]. Binding in assay [10] was put at a Kd of 18.9 nM.

B6: SB-47 (antibody, V domains shown)
VH: QLQLQESGPGLVKPSETLSLTCTVSGGSISSSSYAWGWIRQPPGKGLEWIGSIYYSGSTYYNPSLKSRVTISVDTSKNQFSLKLSSVTAADTAVYYCARDLGHYDYWSGSRDYYYGMDVWGQGTTVTVSS
VL: DIQMTQSPSSLSASVGDRVTITCQASQDISNYLNWYQQKPGKAPKLLIYDASNLETGVPSRFSGSGSGTDFTFTISSLQPEDIATYYCQQADYFPITFGGGTKVEIK
notes: IgG
In the case of B6, the binding result is given as “no binding (tested: 1 ug/ml)” in the assay with human SIRPα on cells [2]; “no binding (tested: 1 ug/ml)” in assay [3]; “no binding (tested: 1 ug/ml)” with mouse SIRPα on cells [4]; “no binding (tested: 100 nM)” in the assay with mouse SIRPα D1-Fc; “no binding (tested: 100 nM)” in [5]. Also, the FOB in the assay with human SIRPα on cells [6] is 2.1 fold over background; in assay [7] it was 1.3 fold over background; with mouse SIRPα on cells [8] it was 1.7 fold over background; in assay [9] it was 1.6 fold over background. Besides, the Kd in assay [10] came out at 14.4 nM.

B7: SB-48 (antibody, V domains shown)
VH: QVQLVESGGGVVQPGRSLRLSCAASGFTFSSYGMHWVRQAPGKGLEWVAVISYDGSNKYYADSVKGRFTISRDNSKNTLYLQMNSLRAEDTAVYYCARDGTIAAAGWPPEYFQHWGQGTLVTVSS
VL: DIQMTQSPSSVSASVGDRVTITCRASQGIDSWLAWYQQKPGKAPKLLIYAASSLQSGVPSRFSGSGSGTDFTLTISSLQPEDFATYYCQQASNFPITFGGGTKVEIK
notes: IgG
Turning to B7, the binding result with human SIRPα on cells [2] was “no binding (tested: 1 ug/ml)”; in [3], “no binding (tested: 1 ug/ml)”; in the assay with mouse SIRPα on cells [4], “no binding (tested: 1 ug/ml)”; with mouse SIRPα D1-Fc, “no binding (tested: 100 nM)”; in assay [5] it was “no binding (tested: 100 nM)”. Also, the FOB with human SIRPα on cells [6] was found to be 2.1 fold over background; in assay [7], 1.1 fold over background; in the assay with mouse SIRPα on cells [8], 2.4 fold over background; in assay [9], 1.7 fold over background. In addition, binding in assay [10] was characterised by a dissociation constant (Kd) of 27.7 nM.

B8: SB-43 (antibody, V domains shown)
VH: QVQLQESGPGLVKPSETLSLTCAVSGYSISSGYYWAWIRQPPGKGLEWIGSIYHSGSTYYNPSLKSRVTISVDTSKNQFSLKLSSVTAADTAVYYCARDAPGYPMLGMDVWGQGTTVSVSS
VL: EIVLTQSPATLSLSPGERATLSCRASQSVSSYLAWYQQKPGQAPRLLIYDASKRATGIPARFSGSGSGTDFTLTISSLEPEDFAVYYCQQRFDFPITFGGGTKVEIK
notes: IgG
Consider B8, for which the binding result with human SIRPα on cells [2] is “no binding (tested: 1 ug/ml)”; in [3], “no binding (tested: 1 ug/ml)”; in the assay with mouse SIRPα on cells [4], “no binding (tested: 1 ug/ml)”; with mouse SIRPα D1-Fc, “no binding (tested: 100 nM)”; in assay [5], “no binding (tested: 100 nM)”. Further, the FOB with human SIRPα on cells [6] was determined as 2.3 fold over background; in [7] it was 1.1 fold over background; with mouse SIRPα on cells [8] it was 1.6 fold over background; in [9] it was 2.8 fold over background. Further, in assay [10], binding was put at a Kd of 12.3 nM.

B9: SB-46 (antibody, V domains shown)
VH: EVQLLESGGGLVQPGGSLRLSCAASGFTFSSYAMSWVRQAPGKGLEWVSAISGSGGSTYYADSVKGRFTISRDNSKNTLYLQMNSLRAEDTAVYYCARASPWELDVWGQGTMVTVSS
VL: EIVLTQSPGTLSLSPGERATLSCRASQSVRSSYLAWYQQKPGQAPRLLIYGASSRATGIPDRFSGSGSGTDFTLTISRLEPEDFAVYYCQQLYSSPYTFGGGTKVEIK
notes: IgG
As to B9, the binding result with human SIRPα on cells [2] is “no binding (tested: 1 ug/ml)”; in assay [3], “no binding (tested: 1 ug/ml)”; in the assay with mouse SIRPα on cells [4] it was “no binding (tested: 1 ug/ml)”; with mouse SIRPα D1-Fc it was “no binding (tested: 100 nM)”; in [5], “no binding (tested: 100 nM)”. The FOB in the assay with human SIRPα on cells [6] was 2.1 fold over background; in [7], 1.3 fold over background; in the assay with mouse SIRPα on cells [8] it was 1.4 fold over background; in assay [9], 5.3 fold over background. In assay [10], this molecule had a dissociation constant Kd of 20 nM.

B10: SB-1-3 Fab (Fab, V domains shown)
VH: EVQLVESGGGLVKPGGSLRLSCAASGFTFSAYGMNWVRQAPGKGLEWVSAITSSGRSTYYADSVKGRFTISRDNSKNTLYLQMNSLRAEDTAVYYCAKDFTEVVGWLGMDVWGQGTTVTVSS
VL: B9 VL with L4M, R30S, Q91L, Y93G, Y97R
notes: Fab by papain digestion
As for B10, the dissociation constant Kd in assay [1] was 45.4 nM.

B11: SB-1-2 Fab (Fab, V domains shown)
VH: B10 VH with E1Q, L11V, K13Q, G16R, S30G, A31S, Y32F, S53A, R56G, Y59F
VL: B9 VL with L4M, R30S, Q91L, Y93G, Y97R
notes: Fab by papain digestion
B11 showed a Kd in [1] of 37.8 nM.

B12: SB-45 (antibody, V domains shown)
VH: QVQLQESGPGLVKPSETLSLTCAVSGYSISSGYYWAWIRQPPGKGLEWIGSIYHSGSTYYNPSLKSRVTISVDTSKNQFSLKLSSVTAADTAVYYCARDLSRGYAVSGMDVWGQGTTVTVSS
VL: VLTQSPGTLSLSPGERATLSCRASQSVSSSFLAWYQQKPGQAPRLLIYGASSRATGIPDRFSGSGSGTDFTLTISRLEPEDFAVYYCQQVVSVPTFGGGTKVEIK
notes: IgG
With B12, the binding result in the assay with human SIRPα on cells [2] is on record as “no binding (tested: 1 ug/ml)”; in assay [3], “no binding (tested: 1 ug/ml)”; with mouse SIRPα on cells [4] it was “no binding (tested: 1 ug/ml)”; with mouse SIRPα D1-Fc, “no binding (tested: 100 nM)”; in assay [5], “no binding (tested: 100 nM)”. Besides, the FOB was determined as 2.5 fold over background in the assay with human SIRPα on cells [6], 1.4 fold over background in assay [7], 1.2 fold over background with mouse SIRPα on cells [8] and 8.5 fold over background in [9]. The molecule also showed a dissociation constant (Kd) in [10] of 13.9 nM.
